Test results from the supplement of paper PMC10567573.

B1: NETO1 (parent)
chain: GFSPIIGRFCGQQNPPVIKSSGRF
B2: TRAF3IP2 (parent)
chain: APWNYHYHCPGSPDHQVPYGHDYP

Variants of: B1
Assay: protein stability index of a GFP-peptide fusion (GPS, HEK-293T) (PSI 1-6); higher = more stable
Conditions: c terminus: a fixed tail appended
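Also: lentivirally expressed fusions sorted by FACS into six bins by GFP to DsRed ratio, PSI derived from sequencing read proportions per bin multiplied by bin number.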

Variant	protein stability index
F2R	2.16
F2K	2.28
F2V	2.13
F2L	2.55
F2S	2.75
F2Y	2.02
F2P	2.5
F2H	2.15
F2E	3.09
F2T	2.46
F2W	1.52
F2Q	2.91
F2G	2.54
F2N	2.78
F2C	2.73
F2D	2.68
F2M	2
F2I	2.25
F2A	2.35
P4A	2.12
P4C	1.88

Variant	protein stability index
P4E	2.33
P4D	1.57
G1L	2.27
G1I	2
G1C	1.6
G1Q	2.03
G1P	2.25
G1K	2.18
G1V	1.93
G1N	1.85
G1F	1.86
G1T	1.8
G1W	2.02
G1M	1.98
G1E	1.7
G1H	1.66
G1D	1.6
G1Y	1.93
G1S	2.04
G1R	1.98
G1A	2.17

Variant	protein stability index
S3N	2.08
S3F	2.56
S3A	2.6
S3E	2.78
S3D	2.41
S3M	1.84
S3Y	1.53
S3P	1.75
S3R	2.04
S3C	1.22
S3V	2.03
S3I	1.71
S3G	2.2
S3W	1.75
S3L	1.68
S3K	2.47
S3T	2.4
S3H	2.03
S3Q	2.49

Variants of: B2
Assay: as above
Conditions: c terminus: a fixed tail appended

Variant	protein stability index
H8I	2.08
H8G	2.12
D14H	2.25
D14V	2.09
D14S	2.26
D14G	2.1
D14F	2.75
C9F	1.93
C9Q	2.16
C9P	1.9
C9N	2.17
C9T	1.69
V17Q	2.61
V17A	2.06
G11S	2.12
G11P	1.91
P10L	1.54
P10R	1.29
P10Q	2.04
P10G	1.71
P10I	1.66
P10D	2.31

Variant	protein stability index
D22F	1.55
D22R	2.18
D22P	2.68
D22V	1.6
D22A	1.72
D22M	1.95
G20Q	2.19
G20K	2.65
G20L	1.74
Y7M	1.5
Y7G	3.43
Y7N	3.4
Y7F	2.4
Y7W	1.99
Y7R	3.09
Y7D	3.79
Y7T	2.85
P2W	1.27
P2C	2.15
P2E	3.07
P2S	2.1
P2Y	1.51

Variant	protein stability index
P2I	1.58
P18T	2.37
P18V	2.05
P18S	1.67
P18A	3.19
H15Q	2.13
H15F	1.65
Y5A	3.65
Y5Q	2.94
Y5W	2.91
A1Y	2.37
A1R	2.1
A1G	3.39
A1K	2.81
A1Q	1.53
Y23E	3.61
Y23M	2.25
Y23P	3.06
Y23G	2.92
Y23Q	2.92
Y23W	1.68
Y23S	2.85

Variant	protein stability index
Y23K	3.12
Q16Y	2.09
Q16G	1.81
Q16V	2.09
Q16R	2.02
Q16W	1.68
P13D	2.4
P13H	1.79
P13C	1.94
P13A	3.02
P13L	2.16
N4M	2.78
N4W	1.51
N4H	1.97
N4K	2.24
W3Q	3.54
W3K	3.05
W3V	2.52
W3I	3.39
W3E	4.48
S12L	2.47
S12Q	2.5

Variant	protein stability index
S12H	2.23
S12M	1.96
S12T	2.35
H21T	2.03
H21F	1.56
H21L	1.52
H21R	2.4
P24G	1.62
P24S	2.21
P24M	1.66
Y19S	2.44
Y19W	1.82
Y19A	2.47
H6F	2.14
H6Q	2.97
H6I	2.42
H6P	3.38
H6N	3.15
